Numbering of substitutions follows the chain as printed.
B1: H1210 chimera (antibody, V domains shown)
VH: EVKLVESGGDLVKPGGSLKLSCAASGFTFSSYDMSWVRQTPEKSLEWVATISDGGGYIYYSDSVKGRFTISRDNAKNNLYLQMSSLRSEDTALYICAREFGKRYALDYWGQGTSVTVSS
VL: DIVMTQSHKFMSTSVGDRVSISCKASQDVTPAVAWYQQKPGQSPKLLIYSTSSRYTGVPDRFTGSGSGTDFTFTISSVQAEDLAVYYCQQHYTTPLTFGAGTKLELK
notes: also called chimeric antibody
B2: Hu1210-14 (antibody, V domains shown)
VH: EVQLLESGGGLVQPGGSLRLSCAASGFTFSSYDMSWVRQAPGKSLEWVATISDGGGYIYYSDSVKGRFTISRDNSKNTLYLQMNSLRAEDTAVYICAREFGKRYALDYWGQGTTVTVSS
VL: DIQMTQSPSSLSASVGDRVTITCKASQDVTPAVAWYQQKPGKAPKLLIYSTSSRYTGVPSRFSGSGSGTDFTFTISSLQPEDIATYYCQQHYTTPLTFGQGTKLEIK
B3: Hu1210-19 (antibody, V domains shown)
VH: B2 VH
VL: B2 VL with A43S
B4: Hu1210-16 (antibody, V domains shown)
VH: B2 VH with L5V, S44G, S75A, T78S, A88D, I95Y
VL: B2 VL
B5: Hu1210-3 (antibody, V domains shown)
VH: B2 VH with L5V, Q13K, S75A, T78S
VL: B2 VL
notes: Not the mouse mAb HL1210-3
B6: Hu1210-22 (antibody, V domains shown)
VH: B2 VH with L5V, S75A, T78S, A88D
VL: B2 VL with A43S
B7: Hu1210-8 (antibody, V domains shown)
VH: B2 VH with L5V, Q13K, S44G, S75A, T78S, I95Y
VL: B2 VL with A43S
B8: Hu1210-17 (antibody, V domains shown)
VH: B2 VH with L5V, S75A, T78S, A88D
VL: B2 VL
B9: Hu1210-27 (antibody, V domains shown)
VH: B2 VH with L5V, S44G, S75A, T78S, T114L
VL: DIQMTQSPSSLSASVGDRVTITCKASQDVTPAVAWYQQKPGKAPKLLIYSTSSRYTGVPSRFSGSGSGTDFTLTISSLQPEDFATYYCQQHYTTPLTFGQGTKLEIKR
B10: Hu1210-31 (antibody, V domains shown)
VH: B2 VH with L5V, S44G, S75A, T78S
VL: B9 VL
B11: Hu1210-36 (antibody, V domains shown)
VH: B2 VH with L5V, A40T, G42E, S75A, T78N, T114L
VL: B9 VL

These molecules were tested against T1, human PD-L1 expressed on CHOK1 cells (PDL1-CHOK1 cell line) (human, UniProt Q9NZQ7 19-290) (assay: FACS receptor blocking: PDL1-CHOK1 cells, competitor Bio-PD1 (30 µg/ml)).
T1 construct: whole, on cells; also called PDL1-CHOK1 cells; PD-L1 expressed on mammalian cells
T1 sequence (Q9NZQ7 19-290): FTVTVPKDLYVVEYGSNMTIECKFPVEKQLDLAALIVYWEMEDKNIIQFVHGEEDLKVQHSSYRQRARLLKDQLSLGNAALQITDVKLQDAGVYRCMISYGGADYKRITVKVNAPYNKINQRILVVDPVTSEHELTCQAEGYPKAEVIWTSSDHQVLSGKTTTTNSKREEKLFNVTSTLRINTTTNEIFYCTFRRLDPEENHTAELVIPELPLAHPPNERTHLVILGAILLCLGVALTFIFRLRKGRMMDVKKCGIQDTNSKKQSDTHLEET
Protocol: To evaluate the blocking effect of humanized antibodies on human PD-L1 expressed on mammalian cells to bind to its receptor PD-1, the FACS-based receptor blocking assay was employed. Briefly, PDL1-CHOK1 cells were firstly incubated with 3-fold serious diluted HL1210-3 mouse mAb starting at 20 μg/ml at RT for 1 hour. After wash by FACS buffer (PBS with 2% FBS), the biotin-labeled huPD-1 were added to each well and incubated at RT for 1 hour. Then, the Streptavidin-PE were added to each well for 0.5 hour post twice wash with FACS buffer. The mean florescence intensity (MFI) of PE were evaluated by FACSAriaIII.

Row | Molecule | TOP
1 | B1 | 87.2%
2 | B2 | 79.6%
3 | B3 | 87.5%
4 | B4 | 88%
5 | B5 | 84.3%
6 | B6 | 85.8%
7 | B7 | 86.3%
8 | B8 | 80.9%
9 | B9 | 104%
10 | B10 | 92.9%
11 | B11 | 91.8%

Each molecule was assayed against human PD-L1 expressed on CHOK1 cells (PDL1-CHOK1 cell line) (human) (UniProt Q9NZQ7) (assay: FACS on PDL1-CHOK1 cells, MFI of Alexa 488 anti-human IgG; EC50 table under the graph, unit from the x axis Antibodies(nM); fit value of a flat control curve, see non_binding).
Chain of human PD-L1 expressed on CHOK1 cells (PDL1-CHOK1 cell line) (human) (Q9NZQ7 19-290): as above

Row | Molecule | EC50
12 | Hu IgG (antibody) | 9.55 µM
